This assay deals with T1, granulocyte colony stimulating factor (G-CSF) (human), P09919.
T1 chain: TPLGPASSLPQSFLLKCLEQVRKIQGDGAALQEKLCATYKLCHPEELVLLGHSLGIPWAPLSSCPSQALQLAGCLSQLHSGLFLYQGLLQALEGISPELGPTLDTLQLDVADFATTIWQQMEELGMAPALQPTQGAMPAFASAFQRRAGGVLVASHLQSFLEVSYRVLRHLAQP
Put plainly: SEC; analytical SEC-HPLC, TSKgel G3000SWXL, mobile phase 0.1 M phosphate pH 2.5, 1 mL/min; 0.3 mg/mL G-CSF in 50 mM citric acid pH 4.25 with or without 1% (w/v) sucrose, mannitol or phenylalanine, before lyophilization; monomer 19.9 min, dimer 18.4 min. The conditions noted are these: remark: other sources report otherwise.

B1: granulocyte colony stimulating factor (G-CSF), P09919-2 31-204 (natural protein)
chain: TPLGPASSLPQSFLLKCLEQVRKIQGDGAALQEKLCATYKLCHPEELVLLGHSLGIPWAPLSSCPSQALQLAGCLSQLHSGLFLYQGLLQALEGISPELGPTLDTLQLDVADFATTIWQQMEELGMAPALQPTQGAMPAFASAFQRRAGGVLVASHLQSFLEVSYRVLRHLAQP
For B1, the percent dimer was determined as 16% and the stoichiometry N (as a rule, the number of molecules, sites or subunits per partner or assembly) turned out to be 2.

Source of the values: PMC10988552.
